Target: ADHA, alcohol dehydrogenase from Candida magnoliae DSMZ 70638, wild type (Candida magnoliae DSMZ 70638)
Assay: crystal structure; purified enzyme, sitting drop, 20% w/v PEG 3350, 0.2 M sodium citrate; with or without 1 mM NADP+; quaternary structure seen in the crystal

stoichiometry N: 4
Substance: ADHA, alcohol dehydrogenase from Candida magnoliae DSMZ 70638, wild type (enzyme)

Source: publication PMC7164962
